Measured values reported in US20260242482A1 (ONO PHARMACEUTICAL, published 2026).
Changes are numbered by the printed parent chain. In names and notes the source's numbering stands.

What was measured:
[1] = target: T1, mouse PD-L1 (mouse, UniProt Q9EP73 19-290); assay: as described for the mutants of Test 3; no separate experiment told for the double mutant
T1 construct: Overexpressed on IIAdL1 cells or DOdKO cells; also called mPD-L1; CD274

[2] = target: T1, mouse PD-L1; assay: as described for the mutants of Test 3 (PD-1-EC staining of cells co-expressing PD-L1)
[3] = target: T2, human PD-L1 (human, UniProt Q9NZQ7 19-290); assay: co-immunoprecipitation, IIAdL1 cells expressing the human molecules, western blot
T2 construct: Expressed on IIAdL1 or DOdKO cells; also called hPD-L1

[4] = target: T2, human PD-L1; assay: as described for the mutants of Test 4; no separate experiment told for the double mutant
[5] = target: T2, human PD-L1; assay: flow cytometry; PD-1-EC staining of IIAdL1 cells (FIG. 29)
[6] = target: T2, human PD-L1; assay: flow cytometry; DOdKO-hPD-L1/hCD80 cells pretreated with 30 ug/mL TKMF5, stained with human PD-1-EC
[7] = target: T3, mouse CD80 (mouse, UniProt Q00609 38-306); assay: flow cytometry, IIAdL1 cells expressing CD80 alone, soluble PD-1-EC
T3 construct: Overexpressed on IIAdL1 cells or DOdKO cells; also called mCD80
T3 sequence: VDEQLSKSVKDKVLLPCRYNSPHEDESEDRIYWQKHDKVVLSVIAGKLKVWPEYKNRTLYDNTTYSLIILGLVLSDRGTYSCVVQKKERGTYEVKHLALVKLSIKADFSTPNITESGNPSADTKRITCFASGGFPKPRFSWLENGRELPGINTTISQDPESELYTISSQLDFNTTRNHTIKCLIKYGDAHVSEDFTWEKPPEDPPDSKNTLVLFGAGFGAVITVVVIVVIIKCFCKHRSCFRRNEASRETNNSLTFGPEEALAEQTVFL

[8] = target: T1, mouse PD-L1; assay: flow cytometry; DOdKO-mPD-L1/mCD80 cells pretreated with 10 ug/ml TKMG48 or control IgG, stained with mouse PD-1-EC; (TKMG48 treated group-control group)/(control IgG group-control group)

T2 sequence (Q9NZQ7 19-290 limits assumed): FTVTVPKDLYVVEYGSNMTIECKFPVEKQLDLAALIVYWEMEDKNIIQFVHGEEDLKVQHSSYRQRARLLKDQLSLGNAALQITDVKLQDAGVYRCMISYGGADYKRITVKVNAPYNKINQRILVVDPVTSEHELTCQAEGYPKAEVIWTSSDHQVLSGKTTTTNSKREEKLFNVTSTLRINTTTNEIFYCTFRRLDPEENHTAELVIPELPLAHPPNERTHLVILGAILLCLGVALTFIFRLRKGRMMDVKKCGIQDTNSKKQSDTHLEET
T1 sequence (Q9EP73 19-290 limits assumed): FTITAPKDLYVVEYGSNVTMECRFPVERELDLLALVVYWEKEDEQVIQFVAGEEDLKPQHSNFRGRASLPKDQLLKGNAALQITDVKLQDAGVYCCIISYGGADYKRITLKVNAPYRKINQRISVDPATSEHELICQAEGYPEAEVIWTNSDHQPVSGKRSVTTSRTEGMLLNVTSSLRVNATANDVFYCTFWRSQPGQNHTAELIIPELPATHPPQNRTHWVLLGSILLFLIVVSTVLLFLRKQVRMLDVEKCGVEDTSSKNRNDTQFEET

B1: mouse CD80 with the L96E and L107E mutations (ligand)
chain: T3 sequence with L59E, L70E
binding result [1]: no binding

B2: mouse CD80 with the L96E mutation (ligand)
chain: T3 sequence with L59E
notes: also called CD80 L96E
binding result [2]: no binding

B3: mouse CD80L107E (ligand)
chain: T3 sequence with L70E
notes: also called L107E mutant
binding result [2]: no binding

B4: human CD80 (ligand)
chain: VIHVTKEVKEVATLSCGHNVSVEELAQTRIYWQKEKKMVLTMMSGDMNIWPEYKNRTIFDITNNLSIVILALRPSDEGTYECVVLKYEKDAFKREHLAEVTLSVKADFPTPSISDFEIPTSNIRRIICSTSGGFPEPHLSWLENGEELNAINTTVSQDPETELYAVSSKLDFNMTTNHSFMCLIKYGHLRVNQTFNWNTTKQEHFPDNLLPSWAITLISVNGIFVICCLTYCFAPRCRERRRNERLRRESVRPV
notes: Expressed on IIAdL1, DOdKO or DOdPD cells; also called hCD80
binding result [3]: binds

B5: human CD80 mutant (having I92E and L104E mutations) lacking the ability to bind to human PD-L1 (ligand)
chain: B4 chain with I58E, L70E
binding result [4]: no binding

B6: human CD80I92E (ligand)
chain: B4 chain with I58E
binding result [5]: no binding

B7: human CD80L104E mutant (ligand)
chain: B4 chain with L70E
binding result [5]: no binding

B8: human PD-1-EC (receptor)
chain: LDSPDRPWNPPTFSPALLVVTEGDNATFTCSFSNTSESFVLNWYRMSPSNQTDKLAAFPEDRSQPGQDCRFRVTQLPNGRDFHMSVVRARRNDSGTYLCGAISLAPKAQIKESLRAELRVTERRAEVPTAHPSPSPRPAGQFQDYKDDDDK
notes: domain: five-stranded coiled coil domain; also called human PD-1 extracellular region soluble chimeric protein; hPD-1; not shown: five-stranded coiled coil domain of cartilage oligomer matrix protein (Terskikh et al. 1997), fused to the C-terminus
ratio of cells that bound to PD-1-EC [6]: ~50%

B9: soluble mouse PD-1 extracellular region (PD-1-EC) protein (receptor)
chain: LEVPNGPWRSLTFYPAWLTVSEGANATFTCSLSNWSEDLMLNWNRLSPSNQTEKQAAFCNGLSQPVQDARFQIIQLPNRHDFHMNILDTRRNDSGIYLCGAISLHPKAKIEESPGAELVVTERILETSTRYPSPSPKPEGRFQDYKDDDDK
notes: domain: five-stranded coiled coil domain; Soluble chimeric protein from 293T or Plat-E culture supernatant; also called mouse PD-1-EC; mPD-1; not shown: five-stranded coiled coil domain of cartilage oligomer matrix protein (Terskikh et al. 1997), fused to the C-terminus
binding result [7]: no binding
amount of binding (mean fluorescence intensity) after TKMG48 pretreatment relative to control IgG pretreatment [8]: ~10.1 times
